Test results published in paper doi:10.1101/2024.11.24.625074, “Assembly and lipid-gating of LRRC8A:D volume-regulated anion channels” (bioRxiv, 2024).

Biological target: the molecule itself
Assay: cryo-EM structure; LRRC8A_(BRIL):D complexes co-expressed in Sf9, purified in 20 mM HEPES, 150 mM KCl, 1 mM EDTA, 0.02% GDN, pH 7.4; α-BRIL Fab BAG2 and α-Fab Nb added as fiducials; two conformations resolved by 3D variability analysis, C1 symmetry

B1: Mus musculus LRRC8D (natural protein, UniProt Q8BGR2 1-859, looked up)
chain: MFTLAEVASLNDIQPTYRILKPWWDVFMDYLAVVMLMVAIFAGTMQLTKDQVVCLPVLPSPANSKAHTPPGNADITTEVPRMETATHQDQNGQTTTNDVAFGTSAVTPDIPLQATHPHAESTLPNQEAKKEKRDPTGRKTNLDFQQYVFINQMCYHLALPWYSKYFPYLALIHTIILMVSSNFWFKYPKTCSKVEHFVSILGKCFESPWTTKALSETACEDSEENKQRITGAQTLPKHVSTSSDEGSPSASTPMINKTGFKFSAEKPVIEVPSMTILDKKDGEQAKALFEKVRKFRAHVEDSDLIYKLYVVQTLIKTAKFIFILCYTANFVNAISFEHVCKPKVEHLTGYEVFECTHNMAYMLKKLLISYISIICVYGFICLYTLFWLFRIPLKEYSFEKVREESSFSDIPDVKNDFAFLLHMVDQYDQLYSKRFGVFLSEVSENKLREISLNHEWTFEKLRQHVSRNAQDKQELHLFMLSGVPDAVFDLTDLDVLKLELIPEAKIPAKISQMTNLQELHLCHCPAKVEQTAFSFLRDHLRCLHVKFTDVAEIPAWVYLLKNLRELYLIGNLNSENNKMIGLESLRELRHLKILHVKSNLTKVPSNITDVAPHLTKLVIHNDGTKLLVLNSLKKMMNVAELELQNCELERIPHAIFSLSNLQELDLKSNNIRTIEEIISFQHLKRLTCLKLWHNKIVAIPPSITHVKNLESLYFSNNKLESLPTAVFSLQKLRCLDVSYNNISTIPIEIGLLQNLQHLHITGNKVDILPKQLFKCVKLRTLNLGQNCIASLPEKISQLTQLTQLELKGNCLDRLPAQLGQCRMLKKSGLVVEDQLFDTLPLEVKEALNQDVNVPFANGI
notes: the tag was cut off with TEV protease during purification, so a short C-terminal remnant of the linker and the cleavage site is left; Two copies stand in the hexameric channel; also called mmLRRC8D; LRRC8D subunit; source: Sf9 cells, co-expressed with LRRC8A_(BRIL) from one baculovirus; purified in GDN (α-mCherry nanobody resin, α-GFP nanobody resin, Superose 6 Increase); not shown: mCherry, …
  binding result: binds
